In US6998123B1, “Osteoporosis treatment with anti-IL-11 antibody” (priority 1998, dated 2006):
“Also recorded” adds a separate entry of the source. Ends that are not written are not given here.

T1: IL-11 (Homo sapiens, UniProt P20809)
T1 sequence (P20809 22-199): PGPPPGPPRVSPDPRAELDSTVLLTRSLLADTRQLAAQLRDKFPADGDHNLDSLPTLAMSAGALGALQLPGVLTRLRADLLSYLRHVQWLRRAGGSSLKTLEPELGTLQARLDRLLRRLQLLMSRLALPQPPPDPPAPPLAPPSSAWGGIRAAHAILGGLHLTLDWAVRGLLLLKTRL


What was measured:
[1] = tested on: IL-11 and IL-11R; assay: productive interaction of IL-11 and IL-11R; design: species or system human; conditions: no test named at this place
[2] = target: Interleukin-11 (IL-11); assay: cell-based or functional assay
[3] = tested on: cocultures of murine bone marrow and calvaria cells; assay: TRAP assay: osteoclast formation in cocultures; type: cell-based; conditions: for inhibition of IL-11 induced osteoclast formation (TRAP+ multinucleated cells): 20 ng/ml IL-11, 10, 100 or 1000 ng/ml test substance, 9 days, FIGS. 7A, 7B, 8
Description: Particular IL-11 antagonists useful in the treatment of IL-11 related bone density disorders may be identified using the TRAP assay and the bone nodule formation assay, discussed herein. The TRAP assay is known in the art and involves co-culturing murine calvaria (osteoblasts) and bone marrow cells in vitro and then quantifying osteoclast formation by counting the number of tartrate-resistant acid phosphatase positive (TRAP+) multinucleated cells. […] These potential IL-11 antagonists may be screened to determine if they are IL-11 antagonists by examining their activity in the TRAP assay and the bone nodule formation assay.
Post menopausal osteoporosis is characterized by a general reduction in bone mass, resulting from an imbalance between osteoblast-mediated bone formation and bone resorption by the osteoclast. While the osteoblast is responsible for the formation of new bone or osteoid, it also appears to control the activation and/or number of osteoclasts by releasing cytokines such as IL-6 or IL-11. This process can be examined using a “TRAP assay” which involves co-culturing murine calvaria (osteoblasts) and bone marrow cells in vitro and then quantifying osteoclast formation by counting the number of tartrate-resistant acid phosphatase positive (TRAP+) multinucleated cells. Ovariectomized (OVX) rats or mice provide a satisfactory animal model for postmenopausal women in studies of osteoporosis.
The effect of IL-11 on osteoclast development in cocultures of murine bone marrow and calvaria cells was examined using standard techniques. Briefly, bone marrow cultures were established by removing femurs from mice, dissecting away soft tissue, and removing the distal and proximal ends of the femur. The marrow was then flushed with 5 ml α MEM and 1.0% penicillin-streptomycin using a 25 gauge needle. The bone marrow cells were then suspended to a concentration of 5 000 000 cells per ml in α MEM containing 15% fetal calf serum (charcoal treated) to remove cells adherent to plastic. The non-adherent cells were then co-cultured for an additional 9 days with murine calvaria cells prior to being fixed and stained for TRAPase activity (stains were obtained from Sigma Chemical Co., St. Louis, Mo.). TRAP+ MNC's have the ability to form resorption pits in smooth cortical bone slices and are therefore considered to be of osteoclast origin.
The effect of IL-11 on osteoclast development in cocultures of murine bone marrow and calvaria cells was examined by maintaining these cultures in the presence of various specific concentrations of IL-11 for 9 days. After 9 days of culture, the cells were stained for TRAPase activity and the number of multinucleated TRAP+ cells were determined. The results of this experiment are depicted in Table I. Data are expressed as mean +/− SEM. […]

[4] = tested on: murine calvaria cell culture; assay: bone nodule formation assay with IL-11 antagonists in the presence of exogenous IL-11; type: cell-based; conditions: 20 ng/ml exogenous IL-11; for reduction of the inhibitory effect of IL-11 on bone nodule formation: very low levels/concentrations of test substance, 21 days, FIGS. 9, 10
Method: Bone nodule formation was measured using standard techniques. Briefly, calvaria cell cultures were established as follows: Calvaria cells were obtained from 2 day old fetal mouse calavariae by collagenase digestion. The cells were then cultured for 21 days in the presence of 0.5 mM ascorbic acid and 10 mM β-glycerophosphate. Where indicated in the experimental descriptions below, IL-11 and the mutant IL-11 receptor of experiment 4 were added to the culture at day 0 and every 3–4 days thereafter until the removal of the medium for analysis. Bone nodule formation was quantified by counting alizarin red stain nodules under a light microscope.
The effect of a gp130 binding region mutant soluble IL-11 receptor of type described in Experiment 4 and produced by the process of Experiment 3 on bone nodule formation in the presence of 20 ng/ml of exogenous IL-11 was assessed, and the results are depicted in FIG. 9. […] Thus, IL-11 antagonists such as mutant IL-11Rs can enhance bone nodule formation.
It was desired to determine if bone nodule formation could be modulated in a manner similar to that reported in Example 6 using an IL-11 antagonist peptide such as the one used in Example 5. To achieve this, the procedure of Example 6 was repeated, with the substitution of peptide 1 for the solubilized mutant IL-11 receptor. The results of this experiment are depicted in FIG. 10.

[5] = target: T1, IL-11; conditions: Karow et al., Biochem J. (1996); cited from earlier work
[6] = tested on: murine calvaria cells (primary osteoblasts); assay: bone nodule formation assay: effect of IL-11 alone; type: cell-based; conditions: various concentrations of IL-11; 250 μM ascorbic acid, 10 mM β-glycerol phosphate; FIG. 5
Method: The effect of IL-11 on bone formation was examined using the bone nodule formation assay. Murine calvaria cells (primary osteoblasts) were cultured in the presence of 250 μM ascorbic acid and 10 mM β-glycerol phosphate, and in the presence of various amounts of interleukin-11. After culturing, the culture media were plated out and the number of bone nodules per plate was counted.
The results are shown on the accompanying FIG. 5, where number of bone nodules per plate is plotted as the vertical axis, with the different concentrations of interleukin on the horizontal axis, not to scale. Each bar represents the result on experiments containing a different concentration of interleukin-11, as noted on FIG. 5.

[7] = tested on: gp130; conditions: Karow et al., Biochem J. (1996); cited from earlier work

Row | Molecule | inhibition of the productive interaction of IL-11 and IL-11R [1] | inhibition of IL-11 induced osteoclast formation (TRAP+ multinucleated cells) [3] | reduction of the inhibitory effect of IL-11 on bone nodule formation [4] | also measured
1 | RRLRASW [SEQ ID NO. 5] | capable of inhibiting the productive interaction of IL-11 and IL-11R | – | – | –
2 | H289→Y289 mutant solubilized IL-11 receptor (from UniProt Q14626 24-370) | – | – | – | concentration of mutant receptor allowing enhanced bone nodule formation relative to no exogenous IL-11 [2]: 10 ng/mL
3 | Thr Tyr Pro Ala Ser Trp Pro Cys Gln Pro His Phe Leu Leu Lys Phe Arg Leu Gin Tyr (TYPASWPCQPHFLLKFRLQY; listed as Homo sapiens) [Peptide 2, reference compound] | – | does not | unable to reduce the inhibition of nodule formation by IL-11 | –
4 | RRLRASWTYPASWPCQPHFL [Peptide 1] | binds IL-11 and prevents its productive interaction with IL-11R | inhibits IL-11 induced osteoclast formation | able to reduce the inhibitory effects of 20 ng/ml exogenous IL-11 | –
5 | SILRPDPPQGLRVESVPGYP [SEQ. ID. NO. 6] | inhibit the productive interaction between IL-11 and IL-11R | – | – | –
6 | H289→Y289 mutant solubilized IL-11 receptor: soluble human IL-11 receptor mutated H289 to Y in the gp130 binding region, expressed in BHK cells (protein, left off: small tags and cut ends) SPCPQAWGPPGVQYGQPGRSVKLCCPGVTAGDPVSWFRDGEPKLLQGPDSGLGHELVLAQADSTDEGTYICQTLDGALGGTVTLQLGYPPARPVVSCQAADYENFSCTWSPSQISGLPTRYLTSYRKKTVLGADSQRRSPSTGPWPCPQDPLGAARCVVHGAEFWSQYRINVTEVNPLGASTRLLDVSLQSILRPDPPQGLRVESVPGYPRRLRASWTYPASWPCQPHFLLKFRLQYRPAQHPAWSTVEPAGLEEVITDAVAGLPYAVRVSARDFLDAGTWSTWSPEAWGTPSTGTIPKEIPAWGQLHTQPEVEPQVDSPAPPRPSLQPHPRLLDHRDSVEQVAVLA | – | capable of inhibiting IL-11-induced osteoclast formation | can reverse the effect of exogenous IL-11 | bone nodule formation relative to level without exogenous IL-11 ([4]; 10 ng/ml mutant receptor, FIG. 9): enhanced bone nodule formation relative to the level observed in the absence of exogenous IL-11
7 | soluble form of murine interleukin-11 receptor: soluble form of murine IL-11R produced by Karow et al. (protein, left off: small tags and cut ends) SPCPQAWGPPGVQYGQPGRSVKLCCPGVTAGDPVSWFRDGEPKLLQGPDSGLGHELVLAQADSTDEGTYICQTLDGALGGTVTLQLGYPPARPVVSCQAADYENFSCTWSPSQISGLPTRYLTSYRKKTVLGADSQRRSPSTGPWPCPQDPLGAARCVVHGAEFWSQYRINVTEVNPLGASTRLLDVSLQSILRPDPPQGLRVESVPGYPRRLRASWTYPASWPCQPHFLLKFRLQYRPAQHPAWSTVEPAGLEEVITDAVAGLPHAVRVSARDFLDAGTWSTWSPEAWGTPSTGTIPKEIPAWGQLHTQPEVEPQVDSPAPPRPSLQPHPRLLDHRDSVEQVAVLA | – | – | – | affinity for IL-11 ligand [5]: high affinity
8 | IL-11: cytokine interleukin-11, added exogenously to cultures (protein, UniProt P47873 22-199, looked up) Interleukin-11: PGPPAGSPRVSSDPRADLDSAVLLTRSLLADTRQLAAQMRDKFPADGDHSLDSLPTLAMSAGTLGSLQLPGVLTRLRVDLMSYLRHVQWLRRAGGPSLKTLEPELGALQARLERLLRRLQLLMSRLALPQAAPDQPVIPLGPPASAWGSIRAAHAILGGLHLTLDWAVRGLLLLKTRL | – | – | – | number of bone nodules per plate (bone formation) [6]: can inhibit bone nodule formation; also recorded: inhibits bone formation; effect of IL-11 on osteoclast formation in vitro ([3]; cocultures of murine calvaria and bone marrow cells): potent simulator of osteoclast formation; affinity for gp130 [7]: below the level of detection
